Measurements: paper PMC11480844 (2024)

B1: H2-Kb / Ed16-30 (parent complex)
chain 1: GEQVEQRPPHLSVREGDSAVIICTYTDPNSYYFFWYKQEPGAGLQLLMKVFSSTEINEGQGFTVLLNKKDKQLSLNLTAAHPGDSAVYFCAVSEPSSGQKLVFGQGTILKVYL
chain 2: EAAVTQSPRNKVAVTGGKVTLSCNQTNNHNNMYWYRQDTGHGLRLIHYSYGAGSTEKGDIPDGYKASRPSQENFSLILELATPSQTSVYFCAGRDTGQLYFGEGSKLTVL
chain 3: not shown
chain 4: IQKTPQIQVYSRHPPENGKPNILNCYVTQFHPPHIEIQMLKNGKKIPKVEMSDMSFSKDWSFYILAHTEFTPTETDTYACRVKHDSMAEPKTVYWDRDM
chain 5: SIINFEKL
B2: H2-Kb / Ed31 (parent complex)
chain 1: GQQVQQSPASLVLQEGENAELQCNFSTSLNSMQWFYQRPGGSLVSLFYNPSGTKHSGRLTSTTVIKERRSSLHISSSQTTDSGTYLCALEGNYAQGLTFGLGTRVSVFP
chain 2: ETAVFQTPNYHVTQVGNEVSFNCKQTLGHDTMYWYKQDSKKLLKIMFSYNNKQLIVNETVPRRFSPQSSDKAHLNLRIKSVEPEDSAVYLCASRSAGEQYFGPGTRLTVL
chain 3: not shown
chain 4: B1 chain 4
chain 5: SIINFEKL

Variants of: B1
Experiment: % of reporter cells activated (NFAT-GFP), raw
Further: test concentration or dose not given here.

Row | Variant | ratio to parent
1 | chain 5 E6D | 1.28
2 | chain 5 E6P | 0.508
3 | chain 5 E6T | 0.545
4 | chain 5 E6F | 0.35
5 | chain 5 E6Q | 0.745
6 | chain 5 F5K | 1.04
7 | chain 5 F5I | 1.11
8 | chain 5 F5M | 1.28
9 | chain 5 F5R | 1.19
10 | chain 5 F5W | 1.03
11 | chain 5 F5V | 1.25
12 | chain 5 F5G | 0.976
13 | chain 5 F5A | 1.21
14 | chain 5 N4W | 0.0129
15 | chain 5 N4Y | 0.0322
16 | chain 5 N4D | 0.9
17 | chain 5 N4I | 0.0453
18 | chain 5 I2F | 1.08
19 | chain 5 I2D | 1.31
20 | chain 5 I2G | 1.25
21 | chain 5 I2Q | 0.726
22 | chain 5 I2W | 0.866
23 | chain 5 I2L | 1.33
24 | chain 5 I2R | 0.968

Row | Variant | ratio to parent
25 | chain 5 I3E | 0.45
26 | chain 5 I3G | 0.137
27 | chain 5 I3A | 0.413
28 | chain 5 I3D | 0.562
29 | chain 5 I3Q | 0.322
30 | chain 5 I3W | 0.537
31 | chain 5 I3R | 0.104
32 | chain 5 I3T | 0.613
33 | chain 5 L8P | 0.836
34 | chain 5 L8C | 0.731
35 | chain 5 L8D | 0.715
36 | chain 5 L8F | 1.12
37 | chain 5 L8Y | 1.13
38 | chain 5 L8E | 0.823
39 | chain 5 K7L | 0.401
40 | chain 5 K7Y | 0.265
41 | chain 5 K7C | 0.563
42 | chain 5 K7H | 0.478
43 | chain 5 K7A | 0.499
44 | chain 5 K7M | 0.57
45 | chain 5 K7S | 0.842
46 | chain 5 S1N | 0.522
47 | chain 5 S1K | 0.144

Results, then the variant that gave them:

Row | ratio to parent | Variant
48 | 0.363 | chain 5 E6R
49 | 0.588 | chain 5 E6N
50 | 0.308 | chain 5 E6Y
51 | 0.543 | chain 5 E6G
52 | 0.503 | chain 5 E6K
53 | 0.488 | chain 5 E6H
54 | 0.197 | chain 5 E6C
55 | 0.0227 | chain 5 E6V
56 | 0.422 | chain 5 E6W
57 | 1.25 | chain 5 F5Q
58 | 1.19 | chain 5 F5S
59 | 0.85 | chain 5 F5D
60 | 0.969 | chain 5 F5N
61 | 1.23 | chain 5 F5T
62 | 0.769 | chain 5 F5P
63 | 1.21 | chain 5 F5H
64 | 1.14 | chain 5 F5Y
65 | 0.00803 | chain 5 N4F
66 | 0.121 | chain 5 N4P
67 | 0.0285 | chain 5 N4G
68 | 0.00872 | chain 5 N4E
69 | 0.0901 | chain 5 N4Q
70 | 0.507 | chain 5 N4L
71 | 0.0105 | chain 5 N4V
72 | 0.72 | chain 5 I2H
73 | 1.33 | chain 5 I2V

Row | ratio to parent | Variant
74 | 1.12 | chain 5 I2C
75 | 1.18 | chain 5 I2T
76 | 1.31 | chain 5 I2M
77 | 1.03 | chain 5 I3L
78 | 0.69 | chain 5 I3F
79 | 0.607 | chain 5 I3Y
80 | 0.642 | chain 5 I3C
81 | 0.393 | chain 5 I3S
82 | 1.19 | chain 5 L8I
83 | 0.929 | chain 5 L8W
84 | 1.04 | chain 5 L8R
85 | 1 | chain 5 L8V
86 | 1.09 | chain 5 L8T
87 | 0.305 | chain 5 K7N
88 | 0.297 | chain 5 K7Q
89 | 0.106 | chain 5 K7F
90 | 0.796 | chain 5 K7P
91 | 1.17 | chain 5 K7R
92 | 0.184 | chain 5 S1R
93 | 0.362 | chain 5 S1V
94 | 0.485 | chain 5 S1G
95 | 0.386 | chain 5 S1T
96 | 0.128 | chain 5 S1W
97 | 0.323 | chain 5 S1I
98 | 0.337 | chain 5 S1D
99 | 0.259 | chain 5 S1H

Variants of: B2
Experiment: % of reporter cells activated (NFAT-GFP), raw

Row | Variant | ratio to parent
100 | chain 5 N4D | 0.00288
101 | chain 5 N4H | 0.0784
102 | chain 5 N4M | 0.207
103 | chain 5 I3Y | 0.0382
104 | chain 5 I3S | 0.38
105 | chain 5 I3C | 0.555
106 | chain 5 I3F | 0.0484
107 | chain 5 F5T | 0.956
108 | chain 5 E6C | 0.00242
109 | chain 5 S1I | 0.676
110 | chain 5 S1G | 1.04
111 | chain 5 S1D | 0.504
112 | chain 5 K7H | 0.323
113 | chain 5 K7C | 0.747
114 | chain 5 K7G | 0.186
115 | chain 5 K7A | 0.41
116 | chain 5 I2G | 1.11
117 | chain 5 I2P | 0.972
118 | chain 5 I2Y | 0.658
119 | chain 5 I2K | 0.818
120 | chain 5 I2A | 1.18
121 | chain 5 L8D | 0.549
122 | chain 5 L8K | 0.854
123 | chain 5 L8M | 0.945

Next, values leading:

Row | ratio to parent | Variant
124 | 0.42 | chain 5 N4W
125 | 0.242 | chain 5 N4Y
126 | 0.735 | chain 5 I3K
127 | 0.225 | chain 5 I3N
128 | 0.68 | chain 5 F5C
129 | 0.407 | chain 5 F5E
130 | 0.525 | chain 5 F5N
131 | 0.261 | chain 5 F5P
132 | 0.509 | chain 5 F5K
133 | 0.753 | chain 5 F5S
134 | 0.111 | chain 5 E6Q
135 | 0.0037 | chain 5 E6L
136 | 0.000832 | chain 5 E6I
137 | 0.777 | chain 5 E6K
138 | 0.561 | chain 5 S1E
139 | 0.934 | chain 5 S1Y
140 | 0.99 | chain 5 S1T
141 | 0.551 | chain 5 S1V
142 | 1.04 | chain 5 S1H
143 | 0.176 | chain 5 K7I
144 | 0.146 | chain 5 K7Q
145 | 0.832 | chain 5 I2H
146 | 0.962 | chain 5 I2D
147 | 0.832 | chain 5 I2N
148 | 1.12 | chain 5 I2S
149 | 1.12 | chain 5 I2L
150 | 0.711 | chain 5 L8G
